How the values were obtained:
[1] = biological target: T1, Flag-mut-RNase HEC (catalytically dead RNase HI) (E. coli, UniProt P0A7Y4 1-155, D10R;E48R); experiment: competition
T1 sequence: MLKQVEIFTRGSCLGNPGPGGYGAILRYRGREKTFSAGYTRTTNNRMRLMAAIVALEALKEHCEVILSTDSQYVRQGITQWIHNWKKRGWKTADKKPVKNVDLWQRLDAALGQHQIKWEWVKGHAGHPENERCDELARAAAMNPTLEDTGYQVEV

[2] = biological target: T1, Flag-mut-RNase HEC (catalytically dead …); experiment: EMSA

B1: unlabeled RD hybrid (25 bp RNA/DNA) (DNA:RNA)
DNA: GATTCATACCTGTCGTGCCAGCTGC
RNA: GCAGCUGGCACGACAGGUAUGAAUC
B1: binds [1].

B2: Dig-RD hybrid (25 bp RNA/DNA) (DNA:RNA)
DNA: GATTCATACCTGTCGTGCCAGCTGC
RNA: GCAGCUGGCACGACAGGUAUGAAUC
B2: binds [2].
